assay: soluble on expression in E. coli; label from the status in PepcDB or PDB records

| Sequence | soluble on expression in E. coli |
| --- | --- |
| MGSDKIHHHHHHMRQTFIARKISFISLIHFRDEYMSPQNNHLQRPPAAVLYADELAKLKQNDNAPCPPGWQLSLPAARAFILGDSAQNISRKVVISPSAVERMLVTLATGRGLMLVGEPGTAKSLLSELLATSISGDAGLTIQGGASTTEDQIKYGWNYALLINHGPSTEALVPAPLYQGMRDGKIVRFEEITRTPLEVQDCLLGMLSDRVMTVPELTGEASQLYAREGFNIIATANTRDRGVNEMSAALKRRFDFETVFPIMDFAQELELVASASARLLAHSGIPHKVPDAVLELLVRTFRDLRANGEKKTSMDTLTAIMSTAEAVNVAHAVGVRAWFLANRAGEPADLVDCIAGTIVKDNEEDRARLRRYFEQRVATHKEAHWQAYYQARHRLP | not soluble |
| RDFSPVPWSQYFESMEDVEVENETGKDTFRVYKSGSEGPVLLLLHGGGHSALSWAVFTAAIISRVQCRIVALDLRSHGETKVKNPEDLSAETMAKDVGNVVEAMYGDLPPPIMLIGHSMGGAIAVHTASSNLVPSLLGLCMIDVVEGTAMDALNSMQNFLRGRPKTFKSLENAIEWSVKSGQIRNLESARVSMVGQVKQCEGITSPEGSKKDHPYTWRIELAKTEKYWDGWFRGLSNLFLSCPIPKLLLLAGVDRLDKDLTIGQMQGKFQMQVLPQCGHAVHEDAPDKVAEAVATFLIRHRFAEPIGGFQCVFPGC | soluble |
| MGKKKVKFLQKEELRTLLQSLDLQSGINNDWFLLLIAKTGMRYAEALALTPSDFDWVNATVTIDKSWDYKTHRGFKKTKSTASDREIAIDWQIVGQFKPLIQDLPANDPIFIEKTERGTYKKQYNSTMNNYLEAKCKTLTITVISLHALRHTHASVLLAEGVSIHTISARLGHADVGVTQEIYAHVLDELQKKDDQKMMSVLMQIALEHHHHHH | not soluble |
| GPSPVGQQYHVEKFSGLRIRKPRVSSSEMERKMNGRKLIRLAQLQNKIATEKLEEEDWVTFGVIVKKITPQSSNNGKTFSIWRLNDLKDLDKYISLFLFGDVHKEHWKTDQGTVIGLLNANPMKPKEGTDEVCLSVDNPQKVLLMGDAVDLGTCKARKKNGDPCTQMVNLNDCEYCQYHVQAQYKKVSSKRADLQSSYSG | soluble |
| MAGQVVVNDHLADKAGLQVPVEAEIRLKGEDIPFVSRGGLKLARALEEFGIDVADMTAIDVGASTGGFTDCLLQRGARKVYAVDVGYGQLAWKLRQDSRVVNLEKTNIRYLEPGALPETPGLAVIDASFISLDKVLPSTLRLIGEEGVIVALIKPQFEVGRGEVGKGGVVRDEEKHRRVIADVVALAEGLGLMVLGVTESPILGPKGNREFLIHLKKAVGETPPHNR | not soluble |
| SKVLLVFDFDNTIIDDNSDTWIIQCAPDKKLPIELQDSYQKGLWTEFMGRVFKYLRDEGVKEEELKRAVTSLPFTSGMIELLSFLRMNKDRFDCIIISDSNSIFIDWVLEAAAFHDVFDTVFTNPASFDSTGRLTVRNCHTHACTRCPKNLCKNTVLGEFIDKQLQKGVRYTRIVYIGDGGNDVCPVTFLKKNDVAMPREGYTLHRTLDKMSQNLEPMASSIVVWSSGMEIISHLQFLIQM | soluble |
| MGSDKIHHHHHHMNRIAEEVGLQKASVYHHYAEKDTLLLALVDYVVEELRYRIVQPDDEDPRQQLRRFIDEVVFGHHAGPDATALSPPTDGTIRAFIQIRAQAVHDDDYREQITTIDRIQQEHIAEIIQRGVDAGEFRDVDPTQVASFISTLLTGVFTRRVTMTTDLTPVREATHAYLEAVLVA | not soluble |
| MPERDALLTDLVGDRAAEWDTSGELPRDLLVRLGADGLLCAEVAAEHGGLGLGSRENGEFTAHVGSLCSSLRSVMTSQGMAAWTVQRLGDAGQRATFLKELTSGKLAAVGFSERQAGSDLSAMRTRVRLDGDTAVVDGHKVWTTAAAYADHLVVFGLQEDGSGAVVVVPADTPGVRVERVPKPSGCRAAGHADLHLDQVRVPAGAVLAGSGASLPMLVAASLAYGRKSVAWGCVGILRACRTAAVAHARTREQFGRPLGDHQLVAGHIADLWTAEQIAARVCEYASDHWDEGSPEMVPATILAKHVAAERAAAGAATAAQVLASAGAREGHVVERAYRDAKLMEIIEGSSEMCRVMLAQHALALPA | soluble |
| MAGDPMTIYEQHFIFSDRIVPIRVRENKYARRLILRIDARGREICVTTPPAINLYSIQGFIAKHQSWIEARLARVQIAHANSYLKEGTKIPLLGIPHTIQRKEGRGITEIVAGDVRQEPKIVVYGQLEYLPRRIADVLKKQAALIITPLVKCYARKVERKVKSICYKDTKSRWGSCSIHGNLSFSWRLVMAPQEVIEYVVAHEVAHLIEMNHGPKFWALCEKLCPKSEAYRTWLKENGHMLQAVNFHSYRLEILEHHHHHH | soluble |
| MINQDFILSQVVGGSLDAVAREMSATVTRTARSPLFNEAHDFTTGVFDLSGKKSRLVAQAPGCTLHLYAVVGAVDHLLDAFRYDLHPGDILLVNDPYHGGSHSLDWTIVMPVFYNRKPILLPAVRSHMADNGGPVAGGYNPRSKDIWHDGLRIPPLKIYERGEKRRDVFDLIVANNRLSHWLEGDLNAMIGACKVAASRIQTMLDKYGAEKVITAIDNRIQYTENRVRDEISSWPDGTYVGETFADHDFQGNRDIKVRATVTVKGSDLHIDFTGSSPQVKGFINSPLSNTTSFAFVGISTCCDEDIPINEGYMNPVTVTAPIGTVVNPQLPAPCGHATACVGAEIAEAVLQAISQCAPKRVGVNAHKLPLAYSHGKYDDGKPWVNLNFYGYTGGAGAAYETDGWGLYPPVMTGVILPSIEMTEVQYPSRVLKHEYTSDFTGAGRWRGTPGLDVQIQHLKESRTSVMMAGGRNTTKGFCGAGDSPSNKVIVGYGTDEAREIDETAFEVKMPVGGIIQFYRAGGGGWGNPLEREPEKVLDD | not soluble |
| MIKEKYTFDDLVEIMKILRSENGCPWDRVQNHESLKKYLIEETYEVLEVIDLNDKKRLCEELGDLLLQIVFHAQIASEDNEFDINDVITGICRKMVQRHTHVFGTDKADTAEEVLANWEEIKKKEKGMESQTEVLKSVPSNLPALMRSYKVQQKASQVGFDWKDIDSVFEKVYEEINELRDVYKSKDVERINDELGDVLFSIVNLSRFLKVQPELALMGSVNKFIERFEFIEKEAAKSGRTLSEMSLDEMDELWNKAKTKI | soluble |
| MTTEAPIWPAELFEDLDRNGPIPLYFQVAQRLEDGIRSGVLPPGARLENEISVAKHLNVSRPTVRRAIQEVVDKGLLVRRRGVGTQVVQSHVTRPVELTSFFNDLKNANLDPKTRVLEHRLLAASSAIAEKLGVSAGDEVLLIRRLRSTGDIPVAILENYLPPAFNDVSLDELEKGGLYDALRSRGVVLKIANQKIGARRAVGEESTLLDIEDGGPLLTVERVALDNSGQVIELGSHCYRPDMYNFETTLVAR | soluble |
| GPGSMEERKTASGSAYYLPSPLLLSQNQGEERVKFVVVSGGVCSSLGKGVTTSAIGALLHASGYRVCSIKIDPYINIDAGLMSPYEHGEVYVLEDGGEADLDLGNYERWMSVHLTRDHNITTGKMYQKLLTKERAGGFLGKTVQLVPHFTNEVVNHIFKIC | not soluble |
| MRMTINRYNFQALWNRMCMILTSKGGELKFGEIIPDTKRSEMKIGKTLYIVNSRYNGKENIIDKFKRLITRKLESQSKGN | not soluble |
| MGSDKIHHHHHHMIILTRKDLDELLKAEIAVSSVKEAFKLHYQKKVDQPQRLVMSVKGNWWGLMPSSTDYSFVTKIVNVIPENKERGLPLVQGVVILMSPDTGEILAIIDGTTLTAIRTAAASILSTELAINGRNIGILGIIGAGTEAYYHAKLALEYFKVQKLYISARKSHFELAKRVGGEATDLETLLKNSDTIFATTSSNFPVVLGKYLKDVFHLSSIGAHTPDSRELDDDTIIKVKSYIVDSLEAVSKESGDYIIPKQRGLLENKMIKELGEIIEKGIKIERPSLFKTVGIAVEDNITAHIAYQEALRRGIGFNVSI | not soluble |
| GSHMSGEDAEVRAVSEDVSNGSSGSPSPGDTLPWNLGKTQRSRRSGGGAGSNGSVLDPAERAVIRIADERDRVQKKTFTKWVNKHLIKAQRHISDLYEDLRDGHNLISLLEVLSGDSLPREKGRMRFHKLQNVQIALDYLRHRQVKLVNIRNDDIADGNPKLTLGLIWTIILHFQISDIQVSGQSEDMTAKEKLLLWSQRMVEGYQGLRCDNFTSSWRDGRLFNAIIHRHKPLLIDMNKVYRQTNLENLDQAFSVAERDLGVTRLLDPEDVDVPQPDEKSIITYVSSLYDAMPRVP | soluble |
| MKVLDSRDFAKVKAIAIERASYRNIGALAVYIGSMTGMRISEVLALTWPDIDTKLCVIHVTRSWDHLYGTGFKPTKTDSSVRDIEISPSVIELLNKIHQEQAASYLRTGYRDEDQMIMRDPRHNVITDSACNKALHVIQNKAGIPEDKQITFHGLRHSHVSYLISKGVDIYYISKRLGHSDVTITMKVYGHLLDSQRKQEAHKAVLFMDQILEHHHHHH | not soluble |
| MSTTHNVPQGDLVLRTLAMPADTNANGDIFGGWLMSQMDIGGAILAKEIAHGRVVTVRVEGMTFLRPVAVGDVVCCYARCVQKGTTSVSINIEVWVKKVASEPIGQRYKATEALFKYVAVDPEGKPRALPVE | soluble |
| MSAIPENANVTVLNKNEKKARELIGKLGLKQIPGIIRVTFRKKDNQIYAIEKPEVFRSAGGNYVVFGEAKVDNFTQKLAAAQQQAQASGIMPSNEDVATKSPEDIQADMQAAAEGSVNAAAEEDDEEGEVDAGDLNKDDIELVVQQTNVSKNQAIKALKAHNGDLVNAIMSLSK | soluble |
| ETQQRCVTATDYDTFVSERFGSIIQAVQTFTDSTKPGYAFIAAKPKSGLYLTTVQREDIKNYLKDYNLAPITPSIISPNYLFIKTNLKVTYALNKLQESEQWLEGQIIDKIDRYYTEDVEIFNSSFAKSKMLTYVDDADHSVIGSSATIQMVREVQNFYKTPEAGIKYNNQIKDRSMESNTFSFNSGRKVVNPDTGLEEDVLYDVRIVSTDRDSKGIGKVIIGPFASGDVTENENIQPYTGNDFNKLANSDGRDKYYVIGEINYPADVIYWNIAKINLTSEKFEVQTIELYSDPTDDVIFTRDGSLIVFENDLRPQYLTIDLEPISQLEHHHHHH | soluble |
| MKLSRRSFMKANAVAAAAAAAGLSVPGVARAVVGQQEAIKWDKAPCRFCGTGCGVLVGTQQGRVVACQGDPDAPVNRGLNCIKGYFLPKIMYGKDRLTQPLLRMKNGKYDKEGEFTPITWDQAFDVMEEKFKTALKEKGPESIGMFGSGQWTIWEGYAASKLFKAGFRSNNIDPNARHCMASAVVGFMRTFGMDEPMGCYDDIEQADAFVLWGANMAEMHPILWSRITNRRLSNQNVTVAVLSTYQHRSFELADNGIIFTPQSDLVILNYIANYIIQNNAINQDFFSKHVNLRKGATDIGYGLRPTHPLEKAAKNPGSDASEPMSFEDYKAFVAEYTLEKTAEMTGVPKDQLEQLAQLYADPNKKVISYWTMGFNQHTRGVWANNLVYNLHLLTGKISQPGCGPFSLTGQPSACGTAREVGTFAHRLPADMVVTNEKHRDICEKKWNIPSGTIPAKIGLHAVAQDRALKDGKLNVYWTMCTNNMQAGPNINEERMPGWRDPRNFIIVSDPYPTVSALAADLILPTAMWVEKEGAYGNAERRTQFWRQQVQAPGEAKSDLWQLVQFSRRFKTEEVWPEDLLAKKPELRGKTLYEVLYATPEVSKFPVSELAEDQLNDESRELGFYLQKGLFEEYAWFGRGHGHDLAPFDDYHKARGLRWPVVNGKETQWRYSEGNDPYVKAGEGYKFYGKPDGKAVIFALPFEPAAEAPDEEYDLWLSTGRVLEHWHTGSMTRRVPELHRAFPEAVLFIHPLDAKARDLRRGDKVKVVSRRGEVISIVETRGRNRPPQGLVYMPFFDAAQLVNKLTLDATDPLSKETDFKKCAVKLEKV | not soluble |

Source: the DeepSol protein solubility set
